How the values were obtained:
[1] = target: T1, YggS (E. coli PLP-BP), wild type (Escherichia coli) (UniProt P67080); experiment: EMSA; conditions: REMSA with fixed RNA: 10 mM HEPES pH 7.3, 10 mM KCl, 1 mM MgCl2, 1 mM DTT, 5% glycerol, RT 30 min; 5% native PAGE, 0.5x TBE (fixed-protein REMSA: 20 mM HEPES …)
T1 sequence: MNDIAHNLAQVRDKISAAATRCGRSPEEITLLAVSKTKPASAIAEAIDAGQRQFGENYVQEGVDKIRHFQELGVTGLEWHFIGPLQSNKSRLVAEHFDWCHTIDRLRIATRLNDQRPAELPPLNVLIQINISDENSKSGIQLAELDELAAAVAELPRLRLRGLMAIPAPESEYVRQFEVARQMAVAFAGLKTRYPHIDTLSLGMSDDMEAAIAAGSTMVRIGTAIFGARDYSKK

[2] = tested on: YggS (E. coli PLP-BP), wild type (Escherichia coli); experiment: EMSA; conditions: apo-form (no PLP); REMSA with fixed RNA: 10 mM HEPES pH 7.3, 10 mM KCl, 1 mM MgCl2, 1 mM DTT, 5% glycerol, RT 30 min; 5% native PAGE, 0.5x TBE (fixed-protein REMSA: 20 mM HEPES …)

| Substance | Kd [1] [µM] | Kd [2] [µM] |
| --- | --- | --- |
| GGGUCGCGUGGAAGCCCUGCCUGGGGUUGAAGCGUUAAAACUUAAUCAGGCUAGUUUGUUAGUGGCGUGUCCGUCCGCAGCUGGCAAGCGAAUGUAAAGACUGACUAAGCAUGUAGUACCGAGG [SsrA RNA fragment (198-318)] | 2.8 | – |
| GGGUGGUAACAGUCCGUGGCACGGUAAACUCCACCCGGAGCAAGGCCAAAUAGGGGUUCAUAAGGUACGGCCCGUACUGAACCCGGGUAGGCUGCUUGAGCCAGUGAGCGAUUGCUGGCCUAGAUGAAUGACUGUCCACGACAGAACCCGG [RnpB RNA fragment (210-357)] | 3.4 | – |
| RnpB RNA fragment (210-357) | – | 3.4 |
| SsrA RNA fragment (198-318) | – | 2.8 |
